Assay results reported in publication PMC6921018, “The Loop of the TPR1 Subdomain of Phi29 DNA Polymerase Plays a Pivotal Role in Primer-Terminus Stabilization at the Polymerization Active Site” (Biomolecules, 2019).

T1: Bacteriophage Phi29 terminal protein (TP) (bacteriophage Phi29, UniProt P03681 1-266)
T1 sequence (looked up): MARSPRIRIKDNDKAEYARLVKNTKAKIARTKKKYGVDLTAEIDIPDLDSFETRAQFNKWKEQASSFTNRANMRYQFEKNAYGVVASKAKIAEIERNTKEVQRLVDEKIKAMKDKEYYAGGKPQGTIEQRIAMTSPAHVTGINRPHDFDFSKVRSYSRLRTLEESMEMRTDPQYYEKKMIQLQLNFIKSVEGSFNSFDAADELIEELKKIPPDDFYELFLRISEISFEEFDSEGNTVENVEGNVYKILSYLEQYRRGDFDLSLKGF


Experiments:
[1] = biological target: T1, Bacteriophage Phi29 terminal protein …; test: cell-based or functional assay
[2] = biological target: T1, Bacteriophage Phi29 terminal protein …; test: cell-based or functional assay; remark: listed apart in the source

Binder | protein-primed initiation (TP-dAMP formation) on Phi29 TP-DNA template, activity with respect to the wild-type enzyme (100) [1] | TP-dAMP formation with a limiting amount of TP in competition with the DNA polymerase mutant D249E, relative to that without competitor (interference assay) [2] [%] | TP-dAMP formation with a limiting amount of TP (15 nM) in competition with the catalytically inactive DNA polymerase mutant D249E, at a D249E/wild-type ratio of 1 (interference assay) [2] [fold]
Phi29 DNA polymerase deletion mutant Δ6 lacking residues Arg306-Lys311 (enzyme, bacteriophage Phi29) MKHMPRKMYSCDFETTTKVEDCRVWAYGYMNIEDHSEYKIGNSLDEFMAWVLKVQADLYFHNLKFDGAFIINWLERNGFKWSADGLPNTYNTIISRMGQWYMIDICLGYKGKRKIHTVIYDSLKKLPFPVKKIAKDFKLTVLKGDIDYHKERPVGYKITPEEYAYIKNDIQIIAEALLIQFKQGLDRMTAGSDSLKGFKDIITTKKFKKVFPTLSLGLDKEVRYAYRGGFTWLNDRFKEKEIGEGMVFDVNSLYPAQMYSRLLPYGEPIVFEGKYVWDEDYPLHIQHIRCEFELKEGYIPTIQIKGNEYLKSSGGEIADLWLSNVDLELMKEHYDLYNVEYISGLKFKATTGLFKDFIDKWTYIKTTSEGAIKQLAKLMLNSLYGKFASNPDVTGKVPYLKENGALGFRLGEEETKDPVYTPMGVFITAWARYTTITAAQACYDRIIYCDTDSIHLTGTEIPDVIKDIVDPKKLGYWAHESTFKRAKYLRQKTYIQDIYMKEVDGKLVEGSPDDYTDIKFSVKCAGMTDKIKKEVTFENFKVGFSRKMKPKPVQVPGGVVLVDDTFTIK | 3 % of wild-type | < 50 | 
Bacteriophage Phi29 DNA polymerase, wild-type (enzyme) MKHMPRKMYSCDFETTTKVEDCRVWAYGYMNIEDHSEYKIGNSLDEFMAWVLKVQADLYFHNLKFDGAFIINWLERNGFKWSADGLPNTYNTIISRMGQWYMIDICLGYKGKRKIHTVIYDSLKKLPFPVKKIAKDFKLTVLKGDIDYHKERPVGYKITPEEYAYIKNDIQIIAEALLIQFKQGLDRMTAGSDSLKGFKDIITTKKFKKVFPTLSLGLDKEVRYAYRGGFTWLNDRFKEKEIGEGMVFDVNSLYPAQMYSRLLPYGEPIVFEGKYVWDEDYPLHIQHIRCEFELKEGYIPTIQIKRSRFYKGNEYLKSSGGEIADLWLSNVDLELMKEHYDLYNVEYISGLKFKATTGLFKDFIDKWTYIKTTSEGAIKQLAKLMLNSLYGKFASNPDVTGKVPYLKENGALGFRLGEEETKDPVYTPMGVFITAWARYTTITAAQACYDRIIYCDTDSIHLTGTEIPDVIKDIVDPKKLGYWAHESTFKRAKYLRQKTYIQDIYMKEVDGKLVEGSPDDYTDIKFSVKCAGMTDKIKKEVTFENFKVGFSRKMKPKPVQVPGGVVLVDDTFTIK |  |  | 2
Phi29 DNA polymerase mutant F309A (enzyme, bacteriophage Phi29) MKHMPRKMYSCDFETTTKVEDCRVWAYGYMNIEDHSEYKIGNSLDEFMAWVLKVQADLYFHNLKFDGAFIINWLERNGFKWSADGLPNTYNTIISRMGQWYMIDICLGYKGKRKIHTVIYDSLKKLPFPVKKIAKDFKLTVLKGDIDYHKERPVGYKITPEEYAYIKNDIQIIAEALLIQFKQGLDRMTAGSDSLKGFKDIITTKKFKKVFPTLSLGLDKEVRYAYRGGFTWLNDRFKEKEIGEGMVFDVNSLYPAQMYSRLLPYGEPIVFEGKYVWDEDYPLHIQHIRCEFELKEGYIPTIQIKRSRAYKGNEYLKSSGGEIADLWLSNVDLELMKEHYDLYNVEYISGLKFKATTGLFKDFIDKWTYIKTTSEGAIKQLAKLMLNSLYGKFASNPDVTGKVPYLKENGALGFRLGEEETKDPVYTPMGVFITAWARYTTITAAQACYDRIIYCDTDSIHLTGTEIPDVIKDIVDPKKLGYWAHESTFKRAKYLRQKTYIQDIYMKEVDGKLVEGSPDDYTDIKFSVKCAGMTDKIKKEVTFENFKVGFSRKMKPKPVQVPGGVVLVDDTFTIK | 25 % of wild-type | < 50 | 
Phi29 DNA polymerase mutant R306A (enzyme, bacteriophage Phi29) MKHMPRKMYSCDFETTTKVEDCRVWAYGYMNIEDHSEYKIGNSLDEFMAWVLKVQADLYFHNLKFDGAFIINWLERNGFKWSADGLPNTYNTIISRMGQWYMIDICLGYKGKRKIHTVIYDSLKKLPFPVKKIAKDFKLTVLKGDIDYHKERPVGYKITPEEYAYIKNDIQIIAEALLIQFKQGLDRMTAGSDSLKGFKDIITTKKFKKVFPTLSLGLDKEVRYAYRGGFTWLNDRFKEKEIGEGMVFDVNSLYPAQMYSRLLPYGEPIVFEGKYVWDEDYPLHIQHIRCEFELKEGYIPTIQIKASRFYKGNEYLKSSGGEIADLWLSNVDLELMKEHYDLYNVEYISGLKFKATTGLFKDFIDKWTYIKTTSEGAIKQLAKLMLNSLYGKFASNPDVTGKVPYLKENGALGFRLGEEETKDPVYTPMGVFITAWARYTTITAAQACYDRIIYCDTDSIHLTGTEIPDVIKDIVDPKKLGYWAHESTFKRAKYLRQKTYIQDIYMKEVDGKLVEGSPDDYTDIKFSVKCAGMTDKIKKEVTFENFKVGFSRKMKPKPVQVPGGVVLVDDTFTIK | 8 % of wild-type | < 50 | 
Phi29 DNA polymerase mutant Y310A (enzyme, bacteriophage Phi29) MKHMPRKMYSCDFETTTKVEDCRVWAYGYMNIEDHSEYKIGNSLDEFMAWVLKVQADLYFHNLKFDGAFIINWLERNGFKWSADGLPNTYNTIISRMGQWYMIDICLGYKGKRKIHTVIYDSLKKLPFPVKKIAKDFKLTVLKGDIDYHKERPVGYKITPEEYAYIKNDIQIIAEALLIQFKQGLDRMTAGSDSLKGFKDIITTKKFKKVFPTLSLGLDKEVRYAYRGGFTWLNDRFKEKEIGEGMVFDVNSLYPAQMYSRLLPYGEPIVFEGKYVWDEDYPLHIQHIRCEFELKEGYIPTIQIKRSRFAKGNEYLKSSGGEIADLWLSNVDLELMKEHYDLYNVEYISGLKFKATTGLFKDFIDKWTYIKTTSEGAIKQLAKLMLNSLYGKFASNPDVTGKVPYLKENGALGFRLGEEETKDPVYTPMGVFITAWARYTTITAAQACYDRIIYCDTDSIHLTGTEIPDVIKDIVDPKKLGYWAHESTFKRAKYLRQKTYIQDIYMKEVDGKLVEGSPDDYTDIKFSVKCAGMTDKIKKEVTFENFKVGFSRKMKPKPVQVPGGVVLVDDTFTIK | 30 % of wild-type | < 50 | 
